Earlier results on one substance are cited in paper PMC9133541.

This data set has as its target ExoS peptide (Pseudomonas aeruginosa) (UniProt G3XDA1). Nature of the data set: ITC.
Chain of UniProt G3XDA1 (G3XDA1 whole entry): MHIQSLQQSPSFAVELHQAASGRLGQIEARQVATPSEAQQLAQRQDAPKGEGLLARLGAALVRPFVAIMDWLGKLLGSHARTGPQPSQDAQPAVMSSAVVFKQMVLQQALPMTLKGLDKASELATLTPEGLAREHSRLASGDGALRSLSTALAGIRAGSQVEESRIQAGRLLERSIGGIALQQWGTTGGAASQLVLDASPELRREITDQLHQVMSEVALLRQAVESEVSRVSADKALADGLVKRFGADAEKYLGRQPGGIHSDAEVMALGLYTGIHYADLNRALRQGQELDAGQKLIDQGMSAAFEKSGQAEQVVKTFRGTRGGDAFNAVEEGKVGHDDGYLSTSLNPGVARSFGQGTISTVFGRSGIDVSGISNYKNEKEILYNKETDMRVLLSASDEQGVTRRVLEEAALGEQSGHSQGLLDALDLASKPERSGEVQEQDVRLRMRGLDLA

For orientation: Kd means the concentration at which binding is half-saturated. As for 14-3-3 sigma (from UniProt P31947), the Kd was 45.6 µM.
